Tests used:
mouse PD-1 = target: T1, mouse PD-1 (mouse, UniProt Q02242 25-167); test: AlphaLISA Mouse PD-1 and PD-L1 Binding Kit, inhibition of mouse PD-1/PD-L1 binding; concentration as human Fc (Fig. 1-3-1 B)
T1 sequence (looked up): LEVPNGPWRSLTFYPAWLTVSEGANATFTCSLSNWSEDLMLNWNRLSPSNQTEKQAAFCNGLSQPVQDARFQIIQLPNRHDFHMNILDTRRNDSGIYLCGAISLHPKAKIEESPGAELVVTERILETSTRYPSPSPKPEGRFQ

human CTLA-4 [1] = target: T2, human CTLA-4 (human, UniProt P16410 36-161); test: AlphaLISA Human CTLA-4/CD80 Binding Kit, inhibition of human CTLA-4/CD80 (B7-1) binding; concentration as human Fc (Fig. 7-3-1 B)
T2 sequence (looked up): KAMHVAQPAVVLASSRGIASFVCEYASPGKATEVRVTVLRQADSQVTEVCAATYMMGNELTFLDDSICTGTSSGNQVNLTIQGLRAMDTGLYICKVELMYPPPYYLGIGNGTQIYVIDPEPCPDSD

human CTLA-4 [2] = target: T2, human CTLA-4; test: AlphaLISA Human CTLA-4/CD80 Binding Kit, inhibition of human CTLA-4/CD80 (B7-1) binding; concentration as human Fc (Fig. 7-3-2 B)

B1: anti-mouse PD-1 antibody (derived from J43) with human IgG4 heavy chain constant region and human λ light chain constant region, expressed from the J43/SV-01 … (antibody, V domains shown)
VH: EVRLLESGGGLVKPEGSLKLSCVASGFTFSDYFMSWVRQAPGKGLEWVAHIYTKSYNYATYYSGSVKGRFTISRDDSRSMVYLQMNNLRTEDTATYYCTRDGSGYPSLDFWGQGTQVTVSS
VL: YELTQPPSASVVGETVKITCSGDQLPKYFADWFHQRSDQTILQVIYDDNKRPSGIPERISGSSSGTTATLTIRDVRAEDEGDYYCFSGYVDSDSKLYVFGSGTQLTVLG
notes: also called antibody encoded by T-J43
**Q.** How did the IC50 (mouse PD-1) turn out when B1 was run?
**A.** 6.81 ng/mL

B2: anti-human CTLA4 antibody (derived from ipilimumab), expressed from the Ipi/SV-01 plasmid (antibody, human IgG1, kappa, V domains shown)
VH: QVQLVESGGGVVQPGRSLRLSCAASGFTFSSYTMHWVRQAPGKGLEWVTSISYDGNNKYYADSVKGRFTISRDNSKNTLYLQMNSLRAEDTAIYYCARTGWLGPFDYWGQGTLVTVSS
VL: not shown
notes: also called antibody encoded by T-Ipi
**Q.** With B2 as the binder, how does the IC50 (human CTLA-4 [1]) read?
**A.** 8.24 ng/mL

B3: anti-human CTLA4 antibody (derived from ticilimumab), expressed from the Tic/SV-01 plasmid (antibody, human IgG2, kappa, V domains shown)
VH: QVQLVESGGGVVQPGRSLRLSCAASGFTFSSYGMHWVRQAPGKGLEWVAVIWYDGSNKYYADSVKGRFTISRDNSKNTLYLQMNSLRAEDTAVYYCARDPRGATLYYYYYGMDVWGQGTTVTVSS
VL: DIQMTQSPSSLSASVGDRVTITCRASQSINSYLDWYQQKPGKAPKLLIYAASSLQSGVPSRFSGSGSGTDFTLTISSLQPEDFATYYCQQYYSTPFTFGPGTKVEIKR
notes: also called antibody encoded by T-Tic; derived from ticilimumab (tremelimumab)
**Q.** B3 was tested. Which IC50 (human CTLA-4 [2]) did it give?
**A.** 25.4 ng/mL

— patent EP4733393A1 (Todo, Tomoki, dated 2026)
